Where a chain is given by its changes, count along the chain named. Read-outs that look alike come from different tables or passages of the source. Values belong to the binder of their own block, whether it stands above or below them.
How the values were obtained:
[1] = target: T1, non-human primate IL-13 (rhesus and cynomolgus, identical), baculovirus expressed, carboxyl terminus affinity … (rhesus and cynomolgus monkey, UniProt Q5I6E4 21-132 (Macaca thibetana entry)); test: cell-based or functional assay
T1 chain: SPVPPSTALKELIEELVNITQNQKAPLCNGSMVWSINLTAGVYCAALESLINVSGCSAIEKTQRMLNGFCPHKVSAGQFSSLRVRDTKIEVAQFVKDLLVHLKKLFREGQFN

[2] = target: T2, wild type human IL-13, baculovirus expressed, carboxyl terminus affinity tag (human, UniProt P35225 33-146); test: cell-based or functional assay
human IL-13 [3] = target: T3, human IL-13 (human, UniProt P35225 15-146); test: cell-based or functional assay
human IL-13 [4] = target: T3, human IL-13; test: BIAcore, IgG coupled to CM5 chip, IL-13 50 nM to 0.78 nM passed over
[5] = target: human IL-13 variant (Q130R), baculovirus expressed, carboxyl terminus affinity tag (human, UniProt P35225 33-146); test: cell-based or functional assay
[6] = target: native (naturally occurring) human IL-13 released from HDLM-2 cells (human, UniProt P35225 15-146); test: cell-based or functional assay
[7] = target: T1, non-human primate IL-13 (rhesus and …); test: cell-based or functional assay
[8] = target: T2, wild type human IL-13, baculovirus …; test: cell-based or functional assay; remark: listed apart in the source
murine IL-13 [9] = target: T4, murine IL-13 (mouse, UniProt P20109 21-131, limits assumed); test: cell-based or functional assay
T4 sequence (looked up): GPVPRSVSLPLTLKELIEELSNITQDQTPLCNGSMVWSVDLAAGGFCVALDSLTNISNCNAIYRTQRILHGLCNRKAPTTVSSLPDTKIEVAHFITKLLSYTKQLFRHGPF

murine IL-13 [10] = target: T4, murine IL-13; test: BIAcore, IgG4 coupled to CM5 chip, murine IL-13 passed over
human IL-13 [11] = target: T3, human IL-13; test: cell-based or functional assay; remark: listed apart in the source

human IL-13 variant (Q130R), baculovirus expressed, carboxyl terminus affinity tag, sequence (P35225 33-146 limits assumed, stated change not applied, form in doubt): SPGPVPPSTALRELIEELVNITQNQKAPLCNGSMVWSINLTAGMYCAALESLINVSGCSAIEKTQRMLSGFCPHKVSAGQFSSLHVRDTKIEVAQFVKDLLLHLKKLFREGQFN
T3 sequence (P35225 other isoform, or with tags, fused parts or gaps): as the sequence (P35225 33-146 limits assumed, stated change not applied, form in doubt) above, with Q112R counted along it
native (naturally occurring) human IL-13 released from HDLM-2 cells, sequence (P35225 other isoform, or with tags, fused parts or gaps): as the sequence (P35225 33-146 limits assumed, stated change not applied, form in doubt) above, with Q112R counted along it
T2 sequence (P35225 other isoform, or with tags, fused parts or gaps): as the sequence (P35225 33-146 limits assumed, stated change not applied, form in doubt) above, with Q112R counted along it

B4: BAK1167F2 IgG4 (antibody, V domains shown)
VH: QVQLVQSGAEVKKPGASVKVSCKASGYTFEQTGVSWVRQAPGQGLEWMGWISANNGDTNYGQEFQGRVTMTTDTSTSTAYMELRSLRSDDTAVYYCARDSSSSWARWFFDLWGRGTLVTVSS
VL: SYVLTQPPSVSVAPGKTARITCGGNIIGSKLVHWYQQKPGQAPVLVIYDDGDRPSGIPERFSGSNSGNTATLTISRVEAGDEADYYCQVWDTGSDPVVFGGGTKLTVL
IC50, TF-1 cell proliferation assay [5]: 1.1 nM
IC50, TF-1 cell proliferation assay [8]: 1 nM
IC50, HDLM-2 cell proliferation assay [6]: 1.1 nM

B6: BAK209B11 scFv (scFv, V domains shown)
VH: VQLQESGGGGLVQPGGSLRLSCAASGFTFSSYGMSWVRQAPGKGLEWVSSISASGDSTFYADSVKGRFTISRDNNKNMVFLQVNSLRADDTAVYFCAKDWSQWLVGDAFDVWGRGTTVTVSS
VL: DIQLTQSPSTLSASVGDRVTITCRASQSVSLWVAWYQQRPGKAPKLLIYDGSTLQSGVPARFSGSGSGTEFTLTISSLQPDDFATYYCQQYKTFSTFGQGTKVEIK
IC50, TF-1 cell proliferation assay (murine IL-13 [9]): 185 nM

B7: BAK209B11 human IgG4 (antibody, V domains shown)
VH: B6 VH
VL: DIQLTQSPSTLSASVGDRVTITCRASQSVSLWVAWYQQRPGKAPKLLIYDGSTLQSGVPARFSGSGSGTEFTLTISSLQPDDFATYYCQQYKTFSTFGQGTKVEIKR
IC50, B9 cell proliferation assay (murine IL-13 [9]): 776 pM
Kd (murine IL-13 [10]): 5.1 nM
koff (murine IL-13 [10]): 0.0198 s⁻¹
kon (murine IL-13 [10]): 3.9e+06 M⁻¹ s⁻¹

B8: BAK615E3 scFv (scFv, V domains shown)
VH: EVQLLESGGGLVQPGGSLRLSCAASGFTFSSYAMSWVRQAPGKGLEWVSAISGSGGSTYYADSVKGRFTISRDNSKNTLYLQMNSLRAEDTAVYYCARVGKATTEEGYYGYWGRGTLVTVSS
VL: NFMLTQPHSVSESPGKTVTISCTRSSGSIASNYVQWYQQRPGSAPTTVIYDDNQRPSGVPDRFSGSIDSSSNSASLTISGLKTEDEADYYCQSYDSNNDVFGGGTKVTVL
IC50, TF-1 cell proliferation assay (human IL-13 [11]): 3 nM

Results, then the binder that gave them:

IC50 (read off the curve); TF-1 cell proliferation, 50 ng/ml non-human primate IL-13 [1]: ~90 nM
IC50 (read off the curve); TF-1 cell proliferation, 25 ng/ml human IL-13 [2]: ~70 nM
IC50, TF-1 cell proliferation assay (human IL-13 [3]): 44 nM
B1: BAK278D6 scFv (scFv, V domains shown)
VH: EVQLVQSGAEVKKPGASVKVSCKASGYTFRNYGLSWVRQAPGQGLEWMGWISANNGDTNYGQEFQGRITMTTETSTNTAHMELRSLRSDDTAVYYCVRDSSSNWARWFFDLWGKGTMVTVSS
VL: B4 VL with K16Q, T21P, I26N, I47V, V77I, E78D

Kd (human IL-13 [4]): 13.5 nM
koff (human IL-13 [4]): 0.00741 s⁻¹
kon (human IL-13 [4]): 549000 M⁻¹ s⁻¹
B2: BAK278D6 IgG (antibody, V domains shown)
VH: B1 VH
VL: B4 VL with K16Q, T21P, I26N, I47V, V77I, E78D

IC50, TF-1 cell proliferation assay [5]: 1.9 nM
IC50, HDLM-2 cell proliferation assay [6]: 4.6 nM
IC50, TF-1 cell proliferation assay [7]: 2 nM
B3: BAK502G9 IgG4 (antibody, V domains shown)
VH: B4 VH with E30T, Q31N, T32Y, V34L
VL: B4 VL

IC50, TF-1 cell proliferation assay [5]: 1 nM
IC50, TF-1 cell proliferation assay [8]: 0.9 nM
IC50, HDLM-2 cell proliferation assay [6]: 3.5 nM
B5: BAK1183H4 IgG4 (antibody, V domains shown)
VH: B4 VH with E30T, Q31N, T32Y, V34L, S52N, A53Y, N54D, N55G, D57N, N59Q
VL: B4 VL

— patent publication US20070128192A1 (AstraZeneca / MedImmune, published 2007)
